Key:
Assay in all cases: filter binding
Conditions in all cases: Filter binding: 20 mM HEPES-KOH pH 7.5, 1 mM MgCl2, 10 µM TCEP, 5 mM β-mercaptoethanol, 10 µM ZnCl2, 50-500 mM NaCl, 0.2 nM RNA, 25 min, room temperature. …
[1] = system: HIV-2 GagΔp6 (HIV-2 isolate ROD)
[2] = system: HIV-2 MA (HIV-2 isolate ROD)
[3] = system: HIV-2 NC (NCp8) (HIV-2 isolate ROD)

Row | Substance | Kd [1] [nM] | Kd [2] [nM] | Kd [3] [nM]
1 | HIV-2 TARpA RNA | 965 | 2380 | 1430
2 | HIV-2 PBS RNA | 314 | 2070 | 2040
3 | HIV-2 Ψ RNA | 125 | 1510 | 979
